{"source": "paper PMC6980855", "key": {"[1]": {"molecular_target": "Bcl-XL (single cysteine 152C, Alexa647-labeled, recombinant), Q07817-1", "sequence (Q07817 whole entry)": "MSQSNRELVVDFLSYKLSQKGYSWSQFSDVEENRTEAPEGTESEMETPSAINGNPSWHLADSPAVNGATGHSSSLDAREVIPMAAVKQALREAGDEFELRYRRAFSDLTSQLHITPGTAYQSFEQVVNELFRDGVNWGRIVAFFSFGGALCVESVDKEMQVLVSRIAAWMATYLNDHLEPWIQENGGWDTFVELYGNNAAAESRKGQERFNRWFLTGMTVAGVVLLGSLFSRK", "experiment": "FRET", "conditions": "chain shown with the change, 20 nM Alexa568-labeled BimL mutant (FRET donor), Alexa647-labeled Bcl-XL acceptor"}, "[2]": {"molecular_target": "Bax (single cysteine 126C, Alexa647-labeled, recombinant), Q07812", "sequence (Q07812 whole entry)": "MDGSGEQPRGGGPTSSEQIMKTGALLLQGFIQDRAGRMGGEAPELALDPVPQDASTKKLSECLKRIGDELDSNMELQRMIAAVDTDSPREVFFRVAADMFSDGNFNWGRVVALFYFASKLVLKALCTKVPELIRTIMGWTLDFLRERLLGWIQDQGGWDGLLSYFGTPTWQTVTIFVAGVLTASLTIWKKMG", "experiment": "FRET", "conditions": "chain shown with the change, 20 nM Alexa568-labeled BimL mutant (FRET donor), Alexa647-labeled Bax acceptor"}, "[3]": {"conditions": "membranes present (liposomes), apparent Kd, parent: 1±1"}, "[4]": {"conditions": "membranes present (liposomes), apparent Kd, parent: 29±1"}}, "data": [{"binder": "BimL (single cysteine Q41C, Alexa568-labeled, recombinant) I90E; L94E; I97E; F101E (protein) MHHHHHHGGSGGTGGSENLYFQGTMAKQPSDVSSECDREGGQLQPAERPPQLRPGAPTSLQTEPCDRSPAPMSCDKSTQTPSPPCQAFNHYLSAMASIRQSQEEPEDLRPEIREAQEERREGDEENETYTRRVFANDYREAEDHPQMVILQLLRFIFRLVWRRH", "values": [{"measurement": "Kd", "setting": "[1]; in solution, parent: 8±0.4", "value": "> 1000", "unit": "nM"}, {"measurement": "Kd", "setting": "[1]; [3]", "value": "> 1000", "unit": "nM"}, {"measurement": "Kd", "setting": "[2]; in solution, parent: 59±7", "value": "> 1000", "unit": "nM"}, {"measurement": "Kd", "setting": "[2]; [4]", "value": "> 1000", "unit": "nM"}]}, {"binder": "BimL (single cysteine Q41C, Alexa568-labeled, recombinant) R130A; R134A (protein) MHHHHHHGGSGGTGGSENLYFQGTMAKQPSDVSSECDREGGQLQPAERPPQLRPGAPTSLQTEPCDRSPAPMSCDKSTQTPSPPCQAFNHYLSAMASIRQSQEEPEDLRPEIRIAQELRRIGDEFNETYTRRVFANDYREAEDHPQMVILQLLAFIFALVWRRH", "values": [{"measurement": "Kd", "setting": "[1]; [3]", "value": 20, "unit": "nM"}, {"measurement": "Kd", "setting": "[2]; [4]", "value": 64, "unit": "nM"}]}, {"binder": "BimL (single cysteine Q41C, Alexa568-labeled, recombinant) L129E (protein) MHHHHHHGGSGGTGGSENLYFQGTMAKQPSDVSSECDREGGQLQPAERPPQLRPGAPTSLQTEPCDRSPAPMSCDKSTQTPSPPCQAFNHYLSAMASIRQSQEEPEDLRPEIRIAQELRRIGDEFNETYTRRVFANDYREAEDHPQMVILQLERFIFRLVWRRH", "values": [{"measurement": "Kd", "setting": "[1]; [3]", "value": 5, "unit": "nM"}]}, {"binder": "BimL (single cysteine Q41C, Alexa568-labeled, recombinant) V124E (protein) MHHHHHHGGSGGTGGSENLYFQGTMAKQPSDVSSECDREGGQLQPAERPPQLRPGAPTSLQTEPCDRSPAPMSCDKSTQTPSPPCQAFNHYLSAMASIRQSQEEPEDLRPEIRIAQELRRIGDEFNETYTRRVFANDYREAEDHPQMEILQLLRFIFRLVWRRH", "values": [{"measurement": "Kd", "setting": "[1]; [3]", "value": 2, "unit": "nM"}, {"measurement": "Kd", "setting": "[2]; [4]", "value": 95, "unit": "nM"}]}, {"binder": "BimL (single cysteine Q41C, Alexa568-labeled, recombinant) I132E (protein) MHHHHHHGGSGGTGGSENLYFQGTMAKQPSDVSSECDREGGQLQPAERPPQLRPGAPTSLQTEPCDRSPAPMSCDKSTQTPSPPCQAFNHYLSAMASIRQSQEEPEDLRPEIRIAQELRRIGDEFNETYTRRVFANDYREAEDHPQMVILQLLRFEFRLVWRRH", "values": [{"measurement": "Kd", "setting": "[1]; in solution, parent: 8±0.4", "value": 10, "unit": "nM"}, {"measurement": "Kd", "setting": "[1]; [3]", "value": 2, "unit": "nM"}]}]}
